Test results from the domain aggregation screens of Martell et al. (2025).

experiment: soluble fraction after stress (log2 fold change); higher = more stays soluble; pooled small domains, quantitative proteomics; settings: stress: 50 degC
How it was run: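 After stress at 50°C, the amount of each protein still soluble was measured. This was done on pooled custom libraries of small protein domains, using high-throughput quantitative proteomics. The figure given is a base-two log fold change and stands for aggregation propensity, with higher values meaning more protein stays in solution.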

Sequence	soluble fraction (log2)
HMSFNNHYEILQVQPSADREVIEAAAKALLKKHHPDLGGRNTITSHIVQAKKVLTDTSQRADFDARLRERL	-0.0959
HMKQLNKRQNDILSFAEKQGYVSVENLAKLFSVTQQTIRRDINYLSDNELLVRTHGGAYYSS	-0.902
HMLLTASNYFKETKGINFSELPEALQKGHSFVIKSTENGTNWNAYSTSQNIQRVIDAYFSKLDEYLEKNQ	-0.611
HMDEMEFQKYVDQNLKQKGISLTAEAKAELLLRLGGDTMLLHSAIEKLDLYGEKNLNLNDIKHLVSLNSDV	0.229
HMEPDEESVRLKEEILSRIDYWHTTMPYMGTRKLAAKLRTEGYAVGRKLVRTYMREMGIHAVYP	-0.132
HMALPDSEKRQWLVDEVNERGLKLPDDVLEYLFARVGRSQAHLVDVIEKLDFESLAQSRKLTIPFVREVLK	-0.152
HMDNREKLRQEFLENLKELQEQNDIPQQEIDRVILDYDGVAEFLEDEGALKRYGGQLVDMTAYRAGAIPS	-0.0987
HMRTEGNLGAKVRVLRRSQGMTQAELARRLGISPSYLNLIEHNRRSFTADLLVKLAKILPVNLKT	-1.36
HMTGAEGKLARYLLTVPSGEPLRLSATDLAKRLGISRASLYRAFQALEDARLIRREGKSMYVLDPAGLEGV	-0.289
HMTVPMKILILEDEQRNAMRLIRLLNDIDTTFIIEGPLTNIKEAVDFFQSGKTTDLILADIRL	-0.147
HMGVRDIRIFERNNSFFVNAEIRGEAQLSVPITRTDYQLFKENKIDALSLVEKYYAEELNASNEMK	-0.164
HMGKTKFTEMSALELKAYAELNNNSMHWVYRMLYIGGGDVGFRKGMKELGYSGKFIWMTLERLKKS	-1.32
HMQVLSESDVEDIKAISGGDKAYDNLMEWAGSKLSKQDAKDYDDVLATGNKTAITFAVKALMAQYENAN	-0.299
HMPKAMAIMSEIAGTVHIDDTKKSRHVEVTGVDDNGAPVTKSYLIPFGHRLKVMEGDVLVKGALLT	-0.0964
HMGEVPPGWSVEALAAIERDLAHHVGPVARVLVQRGARLHTTTDDLRSALANAITDDLARRRFMQP	-0.416
HMNVVDTGTDANYRVKISAVNLNMRLGPSTSYKSKGYITPGNYTIIKTSGDWGKVKETGYWVALKYTSKIN	-1.06
HMSSTSTMTVAEATIGRKVKHDKFGEGTIITVADVNGDKKLTIAFNQQGVKMLMLSMAKLEL	-1.03
HMKPSNRSYPTALRMEVIGIIRERYADFGPTLAGEKLAELHGIHLGRETIRQWMMAAGLWKDRR	-0.825
HMTSLAGIERFLASGAIAGVGEAMAHRLVQKFGKETLEIIEKKPSRLTEVAGVGKKTAAKIHASYMEK	-0.106
HMRKIFPFNPNFITDQRGYFLGMSTSEIDRLHHFRAANKWIQSAQEFQVVTKVSNAWLSEFSPYFNFP	-3.39
HMIMVAGHLQIKKGKYYMVLELKSESGERKTKWISTGLSAKGNKRKAEAMLEEARENYQSTDA	-0.899
HMGSSLLSPKEREVLQLLAGNLSNKQIALAMGVSDETIKWHLRNLFGKLNAGGRKHLIDRARMLGLLAAA	-0.6
HMFQNPSQVVTTRVGELRAAIPTAQQGRITMGVAVVEDANSVRSVLISTSEPRGYLRPGVTLGPGETMV	0.0203
HMVTTADIILEFYSRNPNATLTQAAQHVARATGTTYSRQAISAQLKRLEVAGLVERNGHVTV	-0.393
HMGVLSPRQSQILALVAQGLGNREIAERLHIAPTTARDHVQAIMRRLNVNSRAAAAVMGVKLGLI	-0.625

Sequence	soluble fraction (log2)
HMRSMEKRLTAKVKRVQEGVQAKSQAGEQPFEVVKLMQRFPKLMQFGKHAEAETVLDKALELLGEE	0.172
HMTGVEAIERYLASGVIPGVGPVLAKRLVERFGARTLEVIEDSPRRLTQVPGIGRQKARQIHQALKAQRE	-0.25
HMYYQEDHDIILEETEDVTDPYLITLRGYIFLNNLQWVAARQAFLSADERFRHRHYSALIAPIMQTIDNAA	-0.013
HMSPTDKATVNVYALNVRTGPGTNYKVLGSVIKGTELQVLGSSGKWLKVKYGNREAYVAGWLVK	-1.62
HMDIRVAHVDDDMSFGEAFAQARSQVGPGGVFEWHGKLYGTYTAEEWASMSPAERSQYQQAVFN	-0.0545
HMENLRLSELTVERGHRLAGRTLADIASAPNSPKYLIVLIQRGQETVIPTGSTVILPGDVLILAQS	-0.605
HMQLKKDTILSYIEEKLIDSYNSNKGFTTQEISVALNMQRTNVSAILNNLVKENKLVKTKGKPVRYFLSG	-0.708
HMNRREFQFSEGSSNKFWSIELRDQSFIVHYGKIGTNGQAQEKTFATADAAKKEHDKLIAEKTKKGYVEVQ	-0.392
HMEGVNLTVQEAKQMAAIIAPLLKQGQSPYQIVTNHPELGISEKTLYNYIENDVFHEIAGITVMDL	-0.365
HMHAPIAELKKVFKEEFADQEVTVRQLAGSVLLSGNVKTAELRENLESVAKQFFPRVINNLKLI	-0.000214
HMTRVDALDQLAAIRFSSHIFAEDQDLRMVVVDGQRIGEGDIVRDEIRLEQITETGVIFEYQGERFPIDV	-1.42
HMIAAPFVVKDIRVDGVQPATGEAIISSLPVKVGQTATDADVSNVVRQLFSLNRFQNVQATREGNTLVIKV	0.0499
HMSLSEYLSAPVLEGQRNHALFSAVMQAREQGWDEWQIRTTIGAKAEADGLRHAEIAATIRSAMSREITP	-0.121
HMAVSPEEQKKRIIELFRNRNEVSFKEIFDLPTKGHFVITLLAVLDLARQQIVIMEQLENEGIIKFTKGA	-0.0715
HMTPNRDDEHLQSLRDYYASNRRIPSLQRIAALLGFSSRSAAVKLMGRLADEGFVERTVDDDAWIPGSRFF	-0.808
HMTDGLTVPMQGVVIRYKAKKGDKVAVGDAVAVLEAMKMEQNIFANKSGTIKEIYIKEGTTVTPGDVLMSI	-0.0052
HMPSLSAILHDARVAAGLSMRQASAASGLSIGFISMLEQGKVQDISLQRLGRLVTAYDLEPLDVIEAAG	-1.55
HMAGFGDSLEKMSDAVEALKLLMSTEDARNDQNIQKIARELKDVFNKYRTHLRKSYPDQYDRIKSTL	-0.299
HMAIHTSVTEHGEHDLTVRMEMEQVFAIEMAVVSHEQATMLERTFKANAEAIYQKLLGVMTQEYP	-2.33
HMGPIITKTYNLSYATARDVNDIIKSKKSARGDIVIDTRTNSLIVSDVQEKIDLIDEIVATL	-0.27
HMNVSDIENKLNEMLSPLEKKVMVLYLEGKSYVEIGELLGRHTKSVDNALQRVKRKLEIYLKNRK	-1.22
HMIMISKSFEINEDNINKRLDIFLTENLDGLSRGIVQKYISLEQITVNKESSHKDYRLKLDDFIEVKIQAH	-3.76
HMKLIRLGKAAGELNVGMSTLAEFLQSKGHSVDPNPNTKLTPEQYALLRMEFAADQTLKKLTKQP	0.198
HMKTDLQIQQDVMAELKWEPKVNAAHIGVEVKHGVVTLSGHVDSFAEKWNAEQAAKRVAGVKFIAIELDV	-1.67
HMQVSDVTTIRALVEEVLSSSPQQLAQYRAGKLSLKGYFVGQVMKKGKGQLNAAAVNNLLDEIL	-0.185

Sequence	soluble fraction (log2)
HMFPNQLLISRLSNQLSASERFAAVSSIAQLKNIDYDVLHVLVHTMNSDPNSNVRLAALEALSR	-0.529
HMKPALFSADELNRLYRYGLSLTGERDRAYDLLQTALEKYLRQSQAPANAMRYVRKIMHNQFIDDYR	-1.13
HMDEWFPVNDDYKFMVGDEVRTPDGLVKVVATHNDSATFYGKIITPIHDDVLKGETYEYRSYEAQVLA	-0.425
HMPSLGADIRALRKSRKMTLVALADALGRSVGWLSQVERDKSHATIADLGRMAEVLDVSISSFL	-0.27
HMSNWYKNNETDQIWWKDTPDSVGEWLFSFDKKQVFNMFADYPHNLTPEQKKIFDEENPEWSDRP	-0.328
HMLRDTTLLHIDSIVRDGSTAMANITVRDEGTDLEFPLQLRMERGDMGWQVVRIVNYRAYLEAVQKA	-0.336
HMALENTDLYAHLRLSHTASVPEIQAALSARVKHMPLQTWLLARKWLLHPRLRERYDGMWSVRFGA	-2.62
HMVAQQINDFRSERDASTGTLKRPLFDTLRDVISSRAQAYVSATGKPVTVEDLDRIYQAVEAEAKQAL	0.0781
HMLEVTQTDVKMYTTSGTPVYAAPDLNSAIVVYLERFVNVTVTGITDNGFYRVNLNGDYYIPGPYLISSV	-0.369
HMDPSVTGLLTRLGISPQTAQELAGQYEEPYILEKIAIVEAHPEYVKNAAGFVITALQEDWKD	-0.255
HMGLDNEGFERLRQKITRLLSEEALPVKELVDSFASKMRQEVLETLAFLQQEGVIEEKNGKLFLK	0.0365
HMLDFGQEDSEAVSEIILVLGRYWMDFSHKKYPEAEGSALRHKGISHIFTVLKPYLTSATAQLIEQRLQQ	0.00235
HMVVRRLPFGFSKRFGVLVVPGTSNPVELLYREDASMQSLLEARRVVAQPVAFKKTDVESFNAQLARAHEN	-1.23
HMNDTVGMNIRRLRKERGMTQGDLADKAGIQRETISKYESNKLTPPSYNLESIEKALKVPAGTLAQ	0.0652
HMPKSKTPDDAAEEFRTAFSALDMDGKVTVKDMAEYMGVIDKTVYARLKKMGDEFTLDKGVITKKT	-0.0532
HMEPSERYKALQSLLPDYAKRLKKKGVTRHQLFLEYRLTHPDGYARSRFGTYFQAYLALSHP	-2.27
HMPLQYRLTVQPTPTNARVRLVNSAFTYRPGVALPPGSYIVEVSSSGYGAKRQAVQIADGDVTVPVELEKI	-0.012
HMKSLLDQINGIGAIRKRALLNHFGSARAVESASLDEIKSVEGVEAKVAKKIYNFFHEYKNMLR	-1.12
HMSVLEHVSGNVRRLRLQAGLSQEALARAASVSRRMLVGIESGDVNVSLSTLDRIAAALGVLFPDLVQAP	-1.52
HMINKIANLSAELRMEGLPVSIRSTQAAVKIYMDLGGDDRNLLKTALMSIYVKDRYDIPKFNKVFEKLFA	-1.12
HMVSIGSQVAKRRRELRLTQQNLAEKMGVSFQAISSWEREEFLPDINKLQKLAAILNTKISYLLEE	-1.3
HMASDEVPGAGFKWREDVLLRVMEANGIDKSNRDDFVRHAVNFDDDDNNYLKKAEIEAAAAAWVESQSPA	-0.291
HMKFKDYYAALGIDRNADLEQIKKAYRKLARQYHPDVSKAPDAEARFKDAAEAYATLKNPEKRAAYDELGS	0.062
HMPSKTFYNLSQEKQQKIIDASEKEFSNNLYQDVSLNQIIKNSNISRGSFYMYFTDKEDLYFYLLNEY	0.275
HMNMSVVEKVIQQISNPGRDSLIPILQAVQEEEGFISRESVIEIGKALDLPASKIYGVATFYNQFR	-0.338
